Reference: the supplement of paper PMC12667976

B1: library; numbered along this chain (parent)
chain: MATDAALRRLLRLHRTEIAVAVDSAFPLLHALADHDVVPEDKFQETLHLKEKEGCPQAFHALLSWLLTQDSTAILDFWRVLFKDYNLERYGRLQPILDSFPKDVDLSQPRKGRKPPAVPKALVPPPRLPTKRKASEEARAAAPAALTPRGTASPGSQLKAKPPKKPESSAEQQRLPLGNGIQTMSASVQRAVAMSSGDVPGARGAVEGILIQQVFESGGSKKCIQVGGEFYTPSKFEDSGSGKNKARSSSGPKPLVRAKGAQGAAPGGGEARLGQQGSVPAPLALPSDPQLHQKNEDECAVCRDGGELICCDGCPRAFHLACLSPPLREIPSGTWRCSSCLQATVQEVQPRAEEPRPQEPPVETPLPPGLRSAGEEVRGPPGEPLAGMDTTLVYKHLPAPPSAAPLPGLDSSALHPLLCVGPEGQQNLAPGARCGVCGDGTDVLRCTHCAAAFHWRCHFPAGTSRPGTGLRCRSCSGDVTPAPVEGVLAPSPARLAPGPAKDDTASHEPALHRDDLESLLSEHTFDGILQWAIQSMARPAAPFPS

Variants of: B1
Experiment: AIRE transcriptional activation functional score (insulin promoter-GFP; nonsense median 0, synonymous median 1) (normalised score); higher = higher AIRE activity (more reporter activation)
Details: with insulin promoter-GFP reporter in HEK293
In short: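 Using Bxb1 recombinase, codon-optimized NNN-codon libraries for three AIRE regions were inserted into Flp-In T-REx HEK293 landing-pad cells with an insulin core promoter-GFP reporter. After integrants (mCherry+, BFP−) were sorted at day 7 and expanded for 7 days, the top 10% GFP and unselected integrant populations underwent tile-sequencing. Functional scores are wild-type-subtracted enrichments of variants in select over non-select samples. A cutoff of 10 counts per million in non-select applied, and values were rescaled (nonsense median 0, synonymous median 1) and averaged over biological replicates.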

AIRE transcriptional activation functional score, by site and new letter:
R494: W 1.41 | S 0.361 | F 0.918 | P 0.439 | T 0.134 | K 0.735 | Q 0.696 | C 0.847 | Y 0.846 | G 0.344 | V 1.27 | I 0.785 | E 0.493 | H 1.7 | M 0.56 | L 0.489
L495: K 0.745 | G 1.05 | P 0.262 | I 1.22 | R 0.848 | S 0.995 | T 0.948 | D 1.68 | V 1.07 | M 0.186 | E 1 | Y 1.35 | A 1.42 | C 0.97 | F 1.18 | Q 0.974 | H 1.23
E508: I 0.786 | G 0.721 | A 0.896 | M 0.536 | F 0.724 | L 0.506 | N 0.552 | K 0.0783 | C 0.854
A500: L 0.907 | D 1.19 | H 1.22 | Y 0.944 | I 1.1 | W 1.42 | M 0.733 | E 0.98 | V 1.04 | C 1.07 | F 0.977 | S 1.17 | T 1.12 | R 0.915 | G 0.758 | P 0.844 | Q 1.34 | K 0.785 | N 0.646
G498: V 1.36 | H 1.42 | N 0.869 | D 0.318 | Q 0.969 | R 0.839 | I 0.895 | K 0.572 | W 1.45 | S 0.556 | C 1.23 | E 1.1 | M 1.24 | T 1.09 | L 1.11 | A 1.09 | Y 1.2
T504: G 0.95 | A 1.58 | W 1.23 | C 1.15 | S 1.44 | R 0.922 | Q 1.7 | E 0.961 | I 1.6 | F 0.918 | Y 1.77 | D 1.79 | N 0.713 | V 0.558 | M 0.913 | K 0.99 | L 0.843
P490: R 1.07 | Q 0.417 | K 1.17 | S 1.11 | V 0.606 | F 0.986 | N 0.697 | G 1.51 | H 0.603 | L 1.12 | M 0.144 | T 1.13 | D 0.28 | E 0.916 | C 1.26 | W -0.0714 | I 1.17
A496: K 0.412 | P 0.91 | Y 1.07 | Q 1.04 | M 1.5 | T 0.81 | N 0.726 | V 0.988 | G 0.999 | F 1.07 | L 1.15 | C 1.01 | W 1.64 | H 1.29 | D 0.267 | I 1.04 | E 0.99 | R 0.864 | S 1.02
D503: K 0.372 | E 0.774 | Y 1.14 | I 0.789 | V 0.937 | T 1.41 | A 0.958 | L 1 | G 0.835 | N 0.852 | H 0.851 | P 0.73 | C 0.896 | Q 0.845 | F 0.724 | S 0.908 | R 0.543
D502: I 1.02 | T 0.991 | A 0.926 | W 1.04 | R 0.415 | K 0.812 | H 1.15 | N 0.775 | Y 1.33 | C 0.85 | E 0.952 | V 0.937 | G 1.04 | L 0.916 | M 0.261 | P 0.765 | Q 0.924 | F 1.35 | S 0.804
